Experimental data: patent US20170283457A1 (YEDA RESEARCH AND DEVELOPMENT, published 2017)

B3: Importin7 (receptor, UniProt O95373 1-1038, looked up)
chain: MDPNTIIEALRGTMDPALREAAERQLNEAHKSLNFVSTLLQITMSEQLDLPVRQAGVIYLKNMITQYWPDRETAPGDISPYTIPEEDRHCIRENIVEAIIHSPELIRVQLTTCIHHIIKHDYPSRWTAIVDKIGFYLQSDNSACWLGILLCLYQLVKNYEYKKPEERSPLVAAMQHFLPVLKDRFIQLLSDQSDQSVLIQKQIFKIFYALVQYTLPLELINQQNLTEWIEILKTVVNRDVPNETLQVEEDDRPELPWWKCKKWALHILARLFERYGSPGNVSKEYNEFAEVFLKAFAVGVQQVLLKVLYQYKEKQYMAPRVLQQTLNYINQGVSHALTWKNLKPHIQGIIQDVIFPLMCYTDADEELWQEDPYEYIRMKFDVFEDFISPTTAAQTLLFTACSKRKEVLQKTMGFCYQILTEPNADPRKKDGALHMIGSLAEILLKKKIYKDQMEYMLQNHVFPLFSSELGYMRARACWVLHYFCEVKFKSDQNLQTALELTRRCLIDDREMPVKVEAAIALQVLISNQEKAKEYITPFIRPVMQALLHIIRETENDDLTNVIQKMICEYSEEVTPIAVEMTQHLAMTFNQVIQTGPDEEGSDDKAVTAMGILNTIDTLLSVVEDHKEITQQLEGICLQVIGTVLQQHVLEFYEEIFSLAHSLTCQQVSPQMWQLLPLVFEVFQQDGFDYFTDMMPLLHNYVTVDTDTLLSDTKYLEMIYSMCKKVLTGVAGEDAECHAAKLLEVIILQCKGRGIDQCIPLFVEAALERLTREVKTSELRTMCLQVAIAALYYNPHLLLNTLENLRFPNNVEPVTNHFITQWLNDVDCFLGLHDRKMCVLGLCALIDMEQIPQVLNQVSGQILPAFILLFNGLKRAYACHAEHENDSDDDDEAEDDDETEELGSDEDDIDEDGQEYLEILAKQAGEDGDDEDWEEDDAEETALEGYSTIIDDEDNPVDEYQIFKAIFQTIQNRNPVWYQALTHGLNEEQRKQLQDIATLADQRRAAHESKMIEKHGGYKFSAPVVPSSFNFGGPAPGMN
notes: Endogenous protein; also called Imp7; RANBP7

How the values were obtained:
Importin7 [1] = molecular target: B3; experiment: in vitro interaction: GST-MAPK with Imp IPed from stimulated HeLa cells, Western blot
Method: (§1) FIGS. 3A-3B illustrate that JNK1/2 and p38α/β directly interact with either Imp7 or Imp9 but not with Imp3. (A) In vitro interaction of JNK1/2 and p38α/β with Imp3/7/9. Purified Imp3/7/9 were prepared by IP as follows: HeLa cells were grown to 70% confluence, serum starved, and then were either stimulated with Anisomycin (Anis 0.5 μg/ml, 15 min), TPA (250 nM, 15 min) or left untreated (NT). Imp3/7/9 were then IPed from the cell's extracts and extensively washed, twice with RIPA buffer and once with 0.5M LiCl. The indicated GST-MAPKs were prepared from bacteria as described under Materials and methods. To examine association, 500 ng of each GST-MAPK were incubated with 20 μl of the indicated IPed Imps in PBS (2 hrs, 4° C., with rotation). The beads were then washed with washing buffer containing 150 mM NaCl, and interacting MAPKs were detected using Western blot analysis with the indicated Abs. (B) Imp3 is not required for Imp7/9 interactions with JNK1/2 and p38α/β. HeLa cells were treated with Si RNAs of Imp3 according to the manufacturer instructions. […] Cell extracts were then subjected to Co-IP with anti Imp7 or Imp9, the interacting MAPKs were detected by Western blot with the indicated Abs. Amount of IPed Imps was detected by the indicated Abs.

Importin9 [2] = molecular target: T1, Importin9 (UniProt Q96P70 2-1041); experiment: as above
T1 construct: Endogenous protein; also called Imp9; IMB5
Method: as §1

Importin7 [3] = molecular target: B3; experiment: Co-IP with anti GFP Abs, transfected HeLa cells
Method: (§2) FIGS. 10A-10B illustrate that endogenous and overexpressed JNK1/2 and p38α/β CoIP with Imp3, 7 and 9. (A) A Co-IP screen to detect the importins interacting with JNK1/2 and p38α/β in MCF7 cells. MCF7 cells were grown on slides to 70% confluence, serums starved and then were either stimulated with Anisomycin (Anis 0.5 μg/ml, 15 min), TPA (250 nM, 15 min) or left untreated (NT). Cells extracts were then subjected to Co-IP with anti JNK1, JNK2, p38α, or p38β, and rabbit IgG as a negative control (Control). The interacting Imps or the IPed MAPKs were detected by Western blot with the indicated Imps or MAPK Abs. (B) Interaction of overexpressed MAPKs in HeLa cells. HeLa cells were transfected with either JNK2-GFP (wt-JNK2), p38ββ-GFP (wt-p38β) or GFP alone. Cells were serum starved, and then treated with Anisomycin (Anis 0.5 μg/ml, 15 min), TPA (250 nM, 15 min). Cells extracts were then subjected to a CoIP with anti GFP Abs. The interacting Imps and the loading extracts were detected using Western blot analysis with the indicated (left) Abs. The blots were developed with either NBT/BCIP or ECL. Arrows indicate interacting Imps.

Importin9 [4] = molecular target: T1, Importin9; experiment: Co-IP with anti GFP Abs, transfected HeLa cells
Method: as §2

Importin9 [5] = molecular target: T1, Importin9; experiment: PLA, resting HeLa cells
Method: FIGS. 5A-5D illustrate that Imp3 interacts with Imp7/9-MAPK dimer in a phospho-dependent manner (A) Detecting heterodimerization of Imp3/7/9 using PLA. HeLa cells were grown on slides to 70% confluence, serum starved, and stimulated with Anisomycin (Anis, 0.5 μg/ml 15 min). Thereafter, the cells were fixed and subjected to a PLA, using the Abs indicated on top. The nuclei were detected using DAPI, and slides were visualized using a fluorescent microscope. (B) Quantification of the intensity of the signal was performed using ImageJ analysis tool. Data shown represents mean±S.E. The significance of stimulated vs NT was p<0.0005. (C) Detecting Imp3/7/9 interaction by CoIP. Serum-starved HeLa cells (0.1% FBS, 16 hrs) were treated with Anisomycin (Anis 0.5 μg/ml) or TPA (250 nM) for 15 min. Cell extracts were then subjected to a Co-IP with the Abs indicated on right. […] The beads were then washed with a washing buffer containing 150 mM NaCl, and interacting Imps were detected using Western blot analysis with the indicated Abs.
In order to examine this hypothesis, and establish a complex formation between endogenous Imp3/7/9, the present inventors monitored these possible interactions by PLA. No interaction between any of the examined Importins was detected in resting HeLa cells (FIGS. 5A, 5B). […]

T1 sequence (Q96P70 2-1041 limits assumed): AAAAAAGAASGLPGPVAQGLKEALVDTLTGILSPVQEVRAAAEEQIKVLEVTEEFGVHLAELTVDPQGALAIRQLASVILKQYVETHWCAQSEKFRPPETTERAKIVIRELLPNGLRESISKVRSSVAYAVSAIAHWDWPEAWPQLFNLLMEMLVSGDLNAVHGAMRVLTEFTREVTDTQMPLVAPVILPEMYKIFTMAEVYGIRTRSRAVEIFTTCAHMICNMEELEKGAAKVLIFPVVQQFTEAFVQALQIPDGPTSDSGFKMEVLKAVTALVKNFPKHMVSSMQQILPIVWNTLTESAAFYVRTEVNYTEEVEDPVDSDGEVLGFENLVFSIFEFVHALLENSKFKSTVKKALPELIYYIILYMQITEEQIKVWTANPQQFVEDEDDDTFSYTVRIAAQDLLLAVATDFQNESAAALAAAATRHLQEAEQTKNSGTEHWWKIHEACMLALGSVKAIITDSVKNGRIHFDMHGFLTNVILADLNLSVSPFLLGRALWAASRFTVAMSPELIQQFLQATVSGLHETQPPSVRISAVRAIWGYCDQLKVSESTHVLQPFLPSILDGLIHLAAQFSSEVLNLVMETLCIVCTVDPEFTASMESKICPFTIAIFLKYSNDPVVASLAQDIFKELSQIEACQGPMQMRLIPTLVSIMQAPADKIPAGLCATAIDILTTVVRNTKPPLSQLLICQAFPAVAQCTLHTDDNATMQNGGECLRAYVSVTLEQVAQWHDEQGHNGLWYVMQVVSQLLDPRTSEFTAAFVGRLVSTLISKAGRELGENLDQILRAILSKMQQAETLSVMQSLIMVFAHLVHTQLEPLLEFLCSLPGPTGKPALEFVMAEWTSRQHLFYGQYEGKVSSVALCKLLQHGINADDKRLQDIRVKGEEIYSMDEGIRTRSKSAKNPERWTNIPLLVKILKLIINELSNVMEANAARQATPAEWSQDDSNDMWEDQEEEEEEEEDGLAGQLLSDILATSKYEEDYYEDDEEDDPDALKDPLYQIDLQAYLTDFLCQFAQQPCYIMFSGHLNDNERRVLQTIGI

B1: GST-p38β (enzyme, UniProt Q15759 1-364, looked up)
chain: MSGPRAGFYRQELNKTVWEVPQRLQGLRPVGSGAYGSVCSAYDARLRQKVAVKKLSRPFQSLIHARRTYRELRLLKHLKHENVIGLLDVFTPATSIEDFSEVYLVTTLMGADLNNIVKCQALSDEHVQFLVYQLLRGLKYIHSAGIIHRDLKPSNVAVNEDCELRILDFGLARQADEEMTGYVATRWYRAPEIMLNWMHYNQTVDIWSVGCIMAELLQGKALFPGSDYIDQLKRIMEVVGTPSPEVLAKISSEHARTYIQSLPPMPQKDLSSIFRGANPLAIDLLGRMLVLDSDQRVSAAEALAHAYFSQYHDPEDEPEAEPYDESVEAKERTLEEWKELTYQEVLSFKPPEPPKPPGSLEIEQ
notes: Made in bacteria; also called GST-p38α/β; GST-MAPK; not shown: glutathione S-transferase tag of the pGEX-2T vector (GE healthcare)
B1: binds (Importin7 [1]); binds (Importin9 [2]).

B2: p38β-GFP (enzyme, UniProt Q15759 1-364, looked up)
chain: MSGPRAGFYRQELNKTVWEVPQRLQGLRPVGSGAYGSVCSAYDARLRQKVAVKKLSRPFQSLIHARRTYRELRLLKHLKHENVIGLLDVFTPATSIEDFSEVYLVTTLMGADLNNIVKCQALSDEHVQFLVYQLLRGLKYIHSAGIIHRDLKPSNVAVNEDCELRILDFGLARQADEEMTGYVATRWYRAPEIMLNWMHYNQTVDIWSVGCIMAELLQGKALFPGSDYIDQLKRIMEVVGTPSPEVLAKISSEHARTYIQSLPPMPQKDLSSIFRGANPLAIDLLGRMLVLDSDQRVSAAEALAHAYFSQYHDPEDEPEAEPYDESVEAKERTLEEWKELTYQEVLSFKPPEPPKPPGSLEIEQ
notes: Overexpressed in HeLa cells; also called wt-p38β; GFP-p38β; not shown: GFP of the pEGFP-C1 vector (Clontech)
B2: binds (Importin7 [3]); binds (Importin9 [4]).

B3: no binding (Importin9 [5]).
